# The supplement of paper PMC10065799, “High-throughput profiling of sequence recognition by tyrosine kinases and SH2 domains using bacterial peptide display” (eLife, 2023)
# Columns and labels:
# MERTK = MERTK (UniProt Q12866); experiment: phosphorylation enrichment, bacterial display (enrichment ratio); higher = better substrate or ligand; peptides without Tyr show the background
# Fer (mouse) = experiment: as above
# AncSZ = experiment: as above
# FGFR1 = FGFR1 (UniProt P11362); experiment: as above
# FGFR3 = FGFR3 (UniProt P22607); experiment: as above
# Chain of FGFR3 (P22607 whole entry, looked up): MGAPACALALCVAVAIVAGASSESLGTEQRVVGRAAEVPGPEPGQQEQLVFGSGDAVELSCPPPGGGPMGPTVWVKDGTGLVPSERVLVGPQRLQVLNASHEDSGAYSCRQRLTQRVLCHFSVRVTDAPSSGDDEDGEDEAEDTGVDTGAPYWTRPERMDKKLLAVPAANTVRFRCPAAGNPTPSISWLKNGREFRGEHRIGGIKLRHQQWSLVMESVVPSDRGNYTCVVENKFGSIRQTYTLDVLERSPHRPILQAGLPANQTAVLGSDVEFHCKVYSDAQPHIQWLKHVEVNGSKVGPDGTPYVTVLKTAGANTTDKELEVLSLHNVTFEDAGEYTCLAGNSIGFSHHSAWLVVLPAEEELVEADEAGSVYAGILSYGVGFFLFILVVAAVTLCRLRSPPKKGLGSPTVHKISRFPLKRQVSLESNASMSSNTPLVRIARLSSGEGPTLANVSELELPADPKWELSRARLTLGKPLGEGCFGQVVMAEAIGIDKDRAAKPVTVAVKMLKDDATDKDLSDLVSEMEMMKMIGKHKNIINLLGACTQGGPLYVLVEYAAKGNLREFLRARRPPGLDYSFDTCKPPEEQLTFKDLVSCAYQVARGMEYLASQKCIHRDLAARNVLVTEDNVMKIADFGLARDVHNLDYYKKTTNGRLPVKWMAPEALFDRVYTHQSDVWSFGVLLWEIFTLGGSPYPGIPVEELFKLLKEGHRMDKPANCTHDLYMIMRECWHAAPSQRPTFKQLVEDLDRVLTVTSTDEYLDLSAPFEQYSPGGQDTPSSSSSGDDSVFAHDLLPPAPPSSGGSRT
# EPHB1 = EPHB1 (UniProt P54762); experiment: as above
# c-Src = experiment: as above
# Fes = Fes (UniProt P07332); experiment: as above
# Chain of Fes (P07332 whole entry, looked up): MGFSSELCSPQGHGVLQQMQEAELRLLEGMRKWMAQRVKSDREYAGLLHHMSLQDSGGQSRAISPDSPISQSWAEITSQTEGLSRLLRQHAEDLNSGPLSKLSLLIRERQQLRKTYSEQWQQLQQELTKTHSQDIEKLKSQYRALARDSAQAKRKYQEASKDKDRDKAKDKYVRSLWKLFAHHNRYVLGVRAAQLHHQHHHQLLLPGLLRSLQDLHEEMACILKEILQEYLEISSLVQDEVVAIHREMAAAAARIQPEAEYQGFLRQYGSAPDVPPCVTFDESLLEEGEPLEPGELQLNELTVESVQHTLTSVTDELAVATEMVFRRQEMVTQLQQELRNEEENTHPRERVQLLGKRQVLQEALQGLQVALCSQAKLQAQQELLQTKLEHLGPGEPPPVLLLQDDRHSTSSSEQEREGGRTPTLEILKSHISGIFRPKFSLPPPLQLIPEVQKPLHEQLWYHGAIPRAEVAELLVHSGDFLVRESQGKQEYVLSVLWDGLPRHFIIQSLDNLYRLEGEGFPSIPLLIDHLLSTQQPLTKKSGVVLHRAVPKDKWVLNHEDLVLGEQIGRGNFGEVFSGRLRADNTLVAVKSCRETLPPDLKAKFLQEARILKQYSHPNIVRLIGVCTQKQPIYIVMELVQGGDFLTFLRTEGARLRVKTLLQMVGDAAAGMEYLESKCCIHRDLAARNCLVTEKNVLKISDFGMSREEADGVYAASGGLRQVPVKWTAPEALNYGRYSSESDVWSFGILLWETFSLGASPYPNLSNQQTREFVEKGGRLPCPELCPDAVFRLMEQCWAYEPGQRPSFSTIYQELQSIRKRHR
# Fyn = Fyn (UniProt P06241); experiment: as above
# Chain of Fyn (P06241 whole entry, looked up): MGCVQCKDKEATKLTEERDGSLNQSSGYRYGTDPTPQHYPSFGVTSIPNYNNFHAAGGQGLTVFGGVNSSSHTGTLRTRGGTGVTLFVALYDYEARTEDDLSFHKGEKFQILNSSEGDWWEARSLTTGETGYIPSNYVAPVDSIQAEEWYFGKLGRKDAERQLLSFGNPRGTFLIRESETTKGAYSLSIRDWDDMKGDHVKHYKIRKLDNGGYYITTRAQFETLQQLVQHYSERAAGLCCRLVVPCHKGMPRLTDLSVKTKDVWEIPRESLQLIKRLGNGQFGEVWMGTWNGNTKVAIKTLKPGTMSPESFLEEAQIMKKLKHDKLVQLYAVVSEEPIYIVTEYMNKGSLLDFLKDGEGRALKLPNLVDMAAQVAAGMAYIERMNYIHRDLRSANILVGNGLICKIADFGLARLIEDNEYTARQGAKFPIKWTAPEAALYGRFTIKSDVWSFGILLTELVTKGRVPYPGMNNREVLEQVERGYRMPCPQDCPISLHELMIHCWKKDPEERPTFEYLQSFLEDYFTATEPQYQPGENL
# Hck = Hck (UniProt P08631); experiment: as above
# Chain of Hck (P08631 whole entry, looked up): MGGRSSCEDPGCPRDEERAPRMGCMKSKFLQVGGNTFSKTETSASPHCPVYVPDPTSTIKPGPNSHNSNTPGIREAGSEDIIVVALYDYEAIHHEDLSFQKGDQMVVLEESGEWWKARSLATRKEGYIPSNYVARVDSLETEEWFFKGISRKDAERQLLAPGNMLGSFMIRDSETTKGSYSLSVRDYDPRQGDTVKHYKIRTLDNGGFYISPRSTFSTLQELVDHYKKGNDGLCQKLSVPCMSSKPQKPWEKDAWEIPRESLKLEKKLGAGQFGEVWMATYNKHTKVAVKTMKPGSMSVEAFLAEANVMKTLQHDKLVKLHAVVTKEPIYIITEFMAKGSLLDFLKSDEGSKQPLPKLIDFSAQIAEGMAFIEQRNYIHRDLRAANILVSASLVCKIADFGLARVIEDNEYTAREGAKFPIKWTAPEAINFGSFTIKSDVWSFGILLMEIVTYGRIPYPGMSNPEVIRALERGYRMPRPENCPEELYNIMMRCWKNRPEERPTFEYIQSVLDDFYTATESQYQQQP
# c-Abl (mouse) = experiment: as above
# EPHB2 = EPHB2 (UniProt P29323); experiment: as above
# Chain of EPHB2 (P29323 whole entry, looked up): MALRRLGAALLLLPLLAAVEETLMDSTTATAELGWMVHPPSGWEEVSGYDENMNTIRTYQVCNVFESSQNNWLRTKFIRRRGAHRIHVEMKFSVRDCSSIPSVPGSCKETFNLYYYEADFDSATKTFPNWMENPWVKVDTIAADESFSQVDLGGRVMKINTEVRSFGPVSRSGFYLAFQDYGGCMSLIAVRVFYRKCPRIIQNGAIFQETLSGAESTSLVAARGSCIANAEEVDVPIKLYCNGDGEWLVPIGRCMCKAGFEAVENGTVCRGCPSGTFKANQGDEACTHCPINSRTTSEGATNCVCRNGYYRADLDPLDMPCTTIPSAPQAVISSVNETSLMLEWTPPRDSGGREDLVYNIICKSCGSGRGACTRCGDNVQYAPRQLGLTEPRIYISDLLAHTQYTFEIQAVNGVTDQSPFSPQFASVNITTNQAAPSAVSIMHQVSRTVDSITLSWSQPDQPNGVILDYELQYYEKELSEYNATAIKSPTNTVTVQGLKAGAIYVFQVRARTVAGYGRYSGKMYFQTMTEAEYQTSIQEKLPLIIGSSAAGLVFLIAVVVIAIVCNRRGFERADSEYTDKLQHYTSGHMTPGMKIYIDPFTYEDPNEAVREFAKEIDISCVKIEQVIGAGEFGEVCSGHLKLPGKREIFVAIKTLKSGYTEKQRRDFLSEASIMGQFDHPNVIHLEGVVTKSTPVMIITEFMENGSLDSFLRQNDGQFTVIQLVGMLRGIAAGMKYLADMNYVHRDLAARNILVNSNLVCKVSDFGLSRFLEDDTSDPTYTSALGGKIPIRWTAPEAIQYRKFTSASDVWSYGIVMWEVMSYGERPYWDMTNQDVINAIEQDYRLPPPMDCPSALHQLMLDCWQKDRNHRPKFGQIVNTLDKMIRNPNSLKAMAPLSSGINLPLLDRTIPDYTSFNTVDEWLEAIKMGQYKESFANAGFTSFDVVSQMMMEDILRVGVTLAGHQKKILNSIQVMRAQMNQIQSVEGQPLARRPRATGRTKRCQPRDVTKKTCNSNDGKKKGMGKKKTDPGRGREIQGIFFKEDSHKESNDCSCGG
# Jak2 = Jak2 (UniProt O60674); experiment: as above
# SHP2-C SH2 = experiment: SH2 binding enrichment of the phosphorylated peptide, bacterial display (enrichment ratio); higher = better substrate or ligand; peptides without Tyr show the background
# Grb2 SH2 = Grb2 SH2 (UniProt P62993); experiment: as above
# c-Src SH2 = experiment: as above
# 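For SH2 binding enrichment of the phosphorylated peptide, bacterial display in this document: peptide library displayed on the E. coli surface as eCPX fusions, selected cells deep-sequenced, score is each peptide's frequency after selection divided by its frequency in the input.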
# 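For phosphorylation enrichment, bacterial display in this document: 11-residue human phosphosite peptides and single-mutation variants displayed on the E. coli surface, counted by deep sequencing, each peptide's frequency after selection divided by its frequency in the unselected input library; frequency after pTyr selection over input frequency; kinase dosed for 20-30% of maximal phosphorylation in three min.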
# Chain of MERTK (Q12866 whole entry, looked up): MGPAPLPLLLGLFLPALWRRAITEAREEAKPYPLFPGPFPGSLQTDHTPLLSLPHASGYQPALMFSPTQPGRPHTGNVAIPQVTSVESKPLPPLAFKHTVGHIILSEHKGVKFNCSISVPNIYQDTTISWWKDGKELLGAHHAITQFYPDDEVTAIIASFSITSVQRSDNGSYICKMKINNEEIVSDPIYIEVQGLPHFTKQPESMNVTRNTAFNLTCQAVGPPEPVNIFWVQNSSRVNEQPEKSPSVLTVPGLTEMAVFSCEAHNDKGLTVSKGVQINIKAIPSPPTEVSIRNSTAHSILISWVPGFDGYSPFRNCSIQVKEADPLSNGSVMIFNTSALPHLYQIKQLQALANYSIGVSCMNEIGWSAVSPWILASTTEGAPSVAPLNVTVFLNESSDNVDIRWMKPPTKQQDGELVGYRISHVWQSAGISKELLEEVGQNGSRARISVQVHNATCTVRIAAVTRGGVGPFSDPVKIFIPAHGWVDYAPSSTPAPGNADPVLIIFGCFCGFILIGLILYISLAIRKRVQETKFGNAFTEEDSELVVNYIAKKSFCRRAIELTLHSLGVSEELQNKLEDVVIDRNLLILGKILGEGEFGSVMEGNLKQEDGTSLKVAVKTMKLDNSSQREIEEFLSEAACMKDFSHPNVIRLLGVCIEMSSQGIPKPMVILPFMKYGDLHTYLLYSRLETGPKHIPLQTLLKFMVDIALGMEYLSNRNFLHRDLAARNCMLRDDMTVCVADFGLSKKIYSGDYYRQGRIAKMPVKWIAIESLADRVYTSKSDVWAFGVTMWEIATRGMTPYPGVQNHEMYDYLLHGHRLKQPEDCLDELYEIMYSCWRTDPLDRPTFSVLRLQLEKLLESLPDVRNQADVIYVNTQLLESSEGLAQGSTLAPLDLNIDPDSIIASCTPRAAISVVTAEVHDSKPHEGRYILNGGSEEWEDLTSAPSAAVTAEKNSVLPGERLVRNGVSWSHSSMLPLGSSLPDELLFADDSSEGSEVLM
Sequence,SH2 binding enrichment (SHP2-C SH2),SH2 binding enrichment (Grb2 SH2),SH2 binding enrichment (c-Src SH2),phosphorylation enrichment (MERTK),phosphorylation enrichment (Fer (mouse)),phosphorylation enrichment (AncSZ),phosphorylation enrichment (FGFR1),phosphorylation enrichment (FGFR3),phosphorylation enrichment (EPHB1),phosphorylation enrichment (c-Src),phosphorylation enrichment (Fes),phosphorylation enrichment (Fyn),phosphorylation enrichment (Hck),phosphorylation enrichment (c-Abl (mouse)),phosphorylation enrichment (EPHB2),phosphorylation enrichment (Jak2)
SHSMKYFDTAV [HLA-C_Y31_R30K],0.71,1.01,0.417,0.436,0.357,0.579,0.396,0.432,0.36,0.395,0.572,0.356,0.392,0.469,0.389,0.785
YQRITYHNWRH [PDE6B_Y556_R552Q],1.68,1.62,2.5,0.482,0.461,0.59,0.626,0.618,0.386,0.486,0.619,0.446,0.579,0.485,0.483,0.561
HLDRSYSYSYS [PEAR1_Y890_R885H],1.2,0.889,1.53,0.583,0.401,0.718,0.558,0.66,0.603,0.474,0.583,0.424,0.424,0.49,0.477,1.02
RRNEEYCLLAS [ITK_Y198_D202A],0.498,1.11,0.627,0.703,0.594,0.976,0.888,0.977,1.55,0.57,0.924,0.536,0.84,0.522,0.72,0.741
ELANLYHHVCM [BICD2_Y538],0.597,0.673,0.783,1.24,1.77,1.17,1.57,1.49,0.666,1.47,1.05,0.869,2.17,0.982,0.708,1.23
IGEVVYQRAAM [GRIN2A_Y502_V506A],0.883,0.84,0.53,0.441,0.78,0.841,0.438,0.394,0.442,1.27,0.824,0.9,1.66,5.89,0.425,0.595

# Second part, led by results:
SH2 binding enrichment (SHP2-C SH2),SH2 binding enrichment (Grb2 SH2),SH2 binding enrichment (c-Src SH2),Sequence,phosphorylation enrichment (MERTK),phosphorylation enrichment (Fer (mouse)),phosphorylation enrichment (AncSZ),phosphorylation enrichment (FGFR1),phosphorylation enrichment (FGFR3),phosphorylation enrichment (EPHB1),phosphorylation enrichment (c-Src),phosphorylation enrichment (Fes),phosphorylation enrichment (Fyn),phosphorylation enrichment (Hck),phosphorylation enrichment (c-Abl (mouse)),phosphorylation enrichment (EPHB2),phosphorylation enrichment (Jak2)
0.596,0.854,0.536,LFMGDYVGRGY [PPP2CA_Y86_D88G],0.847,0.713,1.53,1.17,1.19,2.15,1.53,1.21,1.37,1.75,0.953,1.72,2.97
0.601,0.676,0.385,MGSFNYLGFAW [SPTLC2_Y178_R183W_YF],0.681,0.559,1.17,0.971,1.03,2.34,0.72,1.16,0.547,0.588,0.768,1.09,1.85
0.94,0.774,1.06,LREKVYVSLEA [RXRA_Y397_A398V],0.568,0.44,0.64,0.837,0.737,0.456,1.36,0.794,1.36,0.61,0.542,0.501,0.723
